These are literature values, as cited in paper PMC2702134.

This series has as its target Glu50 (UniProt position 50, LEWIGEINPDS).

Regarding “Catalytic antibody 34E4 (Kemp eliminase)”, the pKa was 6.4.
